Experimental data reported in paper doi:10.1101/2024.08.29.610253, “Liprin-α/RIM complex regulates the dynamic assembly of presynaptic active zones via liquid-liquid phase separation” (bioRxiv, 2024).

Biological target: the molecule itself
Experiment: SEC-MALS; Superdex 200 Increase 10/300 GL in TBS (20 mM Tris pH 8.0, 100 mM NaCl, 1 mM EDTA, 1 mM DTT); individual proteins or mixture, up to 500 μM

B1: liprin-α2_CC2 (domain or fragment, human, UniProt O75334 259-542, looked up)
chain: GSIDSTDETSQIVELQELLEKQNYEMAQMKERLAALSSRVGEVEQEAETARKDLIKTEEMNTKYQRDIREAMAQKEDMEERITTLEKRYLSAQRESTSIHDMNDKLENELANKEAILRQMEEKNRQLQERLELAEQKLQQTMRKAETLPEVEAELAQRIAALTKAEERHGNIEERMRHLEGQLEEKNQELQRARQREKMNEEHNKRLSDTVDRLLTESNERLQLHLKERMAALEEKNVLIQESETFRKNLEESLHDKERLAEEIEKLRSELDQLKMRTGSLIEP
notes: liprin-α2, human, GenBank AF034799.1, CC2 region, residues 259-542; Dimeric by SEC-MALS at 500 μM; source: E. coli BL21(DE3), purified (Ni-NTA, SEC)
stoichiometry N: 2
